Assay results: patent US20230218721A1 (ZHEJIANG DOER BIOLOGICS, published 2023)
Starred links: 1 amine or outer side, 2 acyl side, 3 side chain; linkers in the order of their positions; H or OH if unused. Groups on a side chain read outwards from the residue. No end group written: not given here. *: point of attachment. C20 diacid = O=C(O)CCCCCCCCCCCCCCCCCCC(=O)*; C18 diacid = O=C(O)CCCCCCCCCCCCCCCCC(=O)*; γGlu = O=C(O)[C@H](CCC(=O)[*:2])N[*:1]; Palmitoyl = CCCCCCCCCCCCCCCC(=O)*; AEEA = NCCOCCOCC(=O)O

T1: glucose-dependent insulinotropic polypeptide receptor (GIPR) (human (printed as 'Humanized'), UniProt P48546 22-466)
T1 sequence (looked up): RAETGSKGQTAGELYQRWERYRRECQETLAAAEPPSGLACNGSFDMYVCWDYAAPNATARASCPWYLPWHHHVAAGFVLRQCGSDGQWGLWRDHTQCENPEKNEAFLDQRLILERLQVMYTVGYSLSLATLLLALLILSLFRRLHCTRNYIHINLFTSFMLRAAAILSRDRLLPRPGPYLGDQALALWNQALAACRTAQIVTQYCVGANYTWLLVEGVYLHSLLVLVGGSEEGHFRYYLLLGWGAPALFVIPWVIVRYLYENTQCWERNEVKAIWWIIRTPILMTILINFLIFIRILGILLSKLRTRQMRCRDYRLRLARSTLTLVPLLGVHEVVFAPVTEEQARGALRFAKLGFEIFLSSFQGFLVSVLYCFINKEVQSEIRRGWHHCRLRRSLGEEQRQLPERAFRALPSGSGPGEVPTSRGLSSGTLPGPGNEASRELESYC

B1: glucagon derivative P5YELAN (peptide)
peptide: YSEGTFTSDK([AEEA-AEEA-γGlu-C18 diacid])SKYLDSQAAQDFVQWLLAGGPSSGAPPPS-NH2
modifications: N-terminus assumed
SMILES: CC(C)C[C@H](NC(=O)[C@H](CC(C)C)NC(=O)[C@H](Cc1c[nH]c2ccccc12)NC(=O)[C@H](CCC(N)=O)NC(=O)[C@@H](NC(=O)[C@H](Cc1ccccc1)NC(=O)[C@H](CC(=O)O)NC(=O)[C@H](CCC(N)=O)NC(=O)[C@H](C)NC(=O)[C@H](C)NC(=O)[C@H](CCC(N)=O)NC(=O)[C@H](CO)NC(=O)[C@H](CC(=O)O)NC(=O)[C@H](CC(C)C)NC(=O)[C@H](Cc1ccc(O)cc1)NC(=O)[C@H](CCCCN)NC(=O)[C@H](CO)NC(=O)[C@H](CCCCNC(=O)COCCOCCNC(=O)COCCOCCNC(=O)CC[C@H](NC(=O)CCCCCCCCCCCCCCCCC(=O)O)C(=O)O)NC(=O)[C@H](CC(=O)O)NC(=O)[C@H](CO)NC(=O)[C@@H](NC(=O)[C@H](Cc1ccccc1)NC(=O)[C@@H](NC(=O)CNC(=O)[C@H](CCC(=O)O)NC(=O)[C@H](CO)NC(=O)[C@@H](N)Cc1ccc(O)cc1)[C@@H](C)O)[C@@H](C)O)C(C)C)C(=O)N[C@@H](C)C(=O)NCC(=O)NCC(=O)N1CCC[C@H]1C(=O)N[C@@H](CO)C(=O)N[C@@H](CO)C(=O)NCC(=O)N[C@@H](C)C(=O)N1CCC[C@H]1C(=O)N1CCC[C@H]1C(=O)N1CCC[C@H]1C(=O)N[C@@H](CO)C(N)=O
B2: glucagon derivative P9YELAN (peptide)
peptide: YSEGTFTSDK([AEEA-AEEA-γGlu-C20 diacid])SKYLDSQAAQDFVQWLLAGGPSSGAPPPS-NH2
modifications: N-terminus assumed
SMILES: CC(C)C[C@H](NC(=O)[C@H](CC(C)C)NC(=O)[C@H](Cc1c[nH]c2ccccc12)NC(=O)[C@H](CCC(N)=O)NC(=O)[C@@H](NC(=O)[C@H](Cc1ccccc1)NC(=O)[C@H](CC(=O)O)NC(=O)[C@H](CCC(N)=O)NC(=O)[C@H](C)NC(=O)[C@H](C)NC(=O)[C@H](CCC(N)=O)NC(=O)[C@H](CO)NC(=O)[C@H](CC(=O)O)NC(=O)[C@H](CC(C)C)NC(=O)[C@H](Cc1ccc(O)cc1)NC(=O)[C@H](CCCCN)NC(=O)[C@H](CO)NC(=O)[C@H](CCCCNC(=O)COCCOCCNC(=O)COCCOCCNC(=O)CC[C@H](NC(=O)CCCCCCCCCCCCCCCCCCC(=O)O)C(=O)O)NC(=O)[C@H](CC(=O)O)NC(=O)[C@H](CO)NC(=O)[C@@H](NC(=O)[C@H](Cc1ccccc1)NC(=O)[C@@H](NC(=O)CNC(=O)[C@H](CCC(=O)O)NC(=O)[C@H](CO)NC(=O)[C@@H](N)Cc1ccc(O)cc1)[C@@H](C)O)[C@@H](C)O)C(C)C)C(=O)N[C@@H](C)C(=O)NCC(=O)NCC(=O)N1CCC[C@H]1C(=O)N[C@@H](CO)C(=O)N[C@@H](CO)C(=O)NCC(=O)N[C@@H](C)C(=O)N1CCC[C@H]1C(=O)N1CCC[C@H]1C(=O)N1CCC[C@H]1C(=O)N[C@@H](CO)C(N)=O
B3: incretin analogue P3YELAN (peptide)
peptide: YSEGTFTSDK([γGlu-Palmitoyl])SKYLDSQAAQDFVQWLLAGGPSSGAPPPS-NH2
modifications: N-terminus assumed
SMILES: CCCCCCCCCCCCCCCC(=O)N[C@@H](CCC(=O)NCCCC[C@H](NC(=O)[C@H](CC(=O)O)NC(=O)[C@H](CO)NC(=O)[C@@H](NC(=O)[C@H](Cc1ccccc1)NC(=O)[C@@H](NC(=O)CNC(=O)[C@H](CCC(=O)O)NC(=O)[C@H](CO)NC(=O)[C@@H](N)Cc1ccc(O)cc1)[C@@H](C)O)[C@@H](C)O)C(=O)N[C@@H](CO)C(=O)N[C@@H](CCCCN)C(=O)N[C@@H](Cc1ccc(O)cc1)C(=O)N[C@@H](CC(C)C)C(=O)N[C@@H](CC(=O)O)C(=O)N[C@@H](CO)C(=O)N[C@@H](CCC(N)=O)C(=O)N[C@@H](C)C(=O)N[C@@H](C)C(=O)N[C@@H](CCC(N)=O)C(=O)N[C@@H](CC(=O)O)C(=O)N[C@@H](Cc1ccccc1)C(=O)N[C@H](C(=O)N[C@@H](CCC(N)=O)C(=O)N[C@@H](Cc1c[nH]c2ccccc12)C(=O)N[C@@H](CC(C)C)C(=O)N[C@@H](CC(C)C)C(=O)N[C@@H](C)C(=O)NCC(=O)NCC(=O)N1CCC[C@H]1C(=O)N[C@@H](CO)C(=O)N[C@@H](CO)C(=O)NCC(=O)N[C@@H](C)C(=O)N1CCC[C@H]1C(=O)N1CCC[C@H]1C(=O)N1CCC[C@H]1C(=O)N[C@@H](CO)C(N)=O)C(C)C)C(=O)O

Tests used:
Test in all cases: cell-based or functional assay
[1] = biological target: T1, glucose-dependent insulinotropic …
glucagon receptor (GCGR) = glucagon receptor (GCGR) (human (printed as 'Humanized'), UniProt P47871 26-477)
[2] = biological target: human glucagon-like peptide-1 receptor (GLP-1R) (human (printed as 'Humanized'), UniProt P43220 24-463)

glucagon receptor (GCGR), sequence (P47871 26-477): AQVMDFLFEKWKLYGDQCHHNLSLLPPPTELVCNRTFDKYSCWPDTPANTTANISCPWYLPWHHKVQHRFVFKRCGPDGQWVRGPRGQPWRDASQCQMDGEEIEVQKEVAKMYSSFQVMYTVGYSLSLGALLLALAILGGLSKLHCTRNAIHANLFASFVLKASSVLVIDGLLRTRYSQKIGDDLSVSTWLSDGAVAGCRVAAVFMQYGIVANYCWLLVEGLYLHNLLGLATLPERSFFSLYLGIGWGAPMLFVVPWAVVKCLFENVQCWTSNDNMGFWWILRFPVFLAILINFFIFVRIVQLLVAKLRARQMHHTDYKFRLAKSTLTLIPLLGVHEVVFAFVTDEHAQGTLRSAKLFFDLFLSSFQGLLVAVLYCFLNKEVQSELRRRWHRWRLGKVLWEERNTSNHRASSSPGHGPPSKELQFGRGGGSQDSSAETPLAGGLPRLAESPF

Binder | GIPR agonist activity (EC50, nM) [1] [nM] | GCGR agonist activity (EC50, nM) (glucagon receptor (GCGR)) [nM] | GLP-1R agonist activity (EC50, nM) [2] [nM]
B1 | 1.56 | 5.87 | 0.81
B2 | 0.19 | 4.77 | 4.25
B3 | 0.004 | 4.57 | 0.11
